Stoichiometry N data for one substance are collected here from PMC2978108.

As a reminder, the stoichiometry N is a count of units in the complex or per binding partner.

The target in the experiment is recombinant GRD domain of GAPA (37 kDa GRD polypeptide) (D. discoideum). The experiment is described as follows: SEC; analytical gel filtration on Sephadex G75 (SMART system) of the purified GRD domain; OD280. A general note: In gel filtration, larger molecules generally elute earlier.

Regarding “recombinant GRD domain of GAPA (37 kDa GRD polypeptide) (domain or fragment)”, the stoichiometry N is 3.
